pKd: −log10 of the molar value.
What was measured:
[1] = biological target: recombinant NKp46 (Raman spectroscopy) (UniProt O76036); test: Raman spectroscopy
[2] = biological target: Myc-tagged extracellular domain of NKp46 (human) (UniProt O76036); test: MST

Chain of UniProt O76036 (O76036 22-258): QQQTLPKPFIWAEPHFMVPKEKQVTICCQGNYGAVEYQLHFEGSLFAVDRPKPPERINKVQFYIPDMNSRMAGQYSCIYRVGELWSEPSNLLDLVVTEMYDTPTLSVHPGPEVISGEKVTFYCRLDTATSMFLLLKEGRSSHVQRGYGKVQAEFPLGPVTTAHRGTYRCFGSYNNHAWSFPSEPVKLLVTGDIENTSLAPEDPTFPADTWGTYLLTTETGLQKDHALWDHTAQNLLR

pKd [1]	pKd [2]	Substance
5.00		recombinant CRT (Raman spectroscopy) (from UniProt P27797 18-417) (natural protein)
	4.39	CRT P domain fused at the C-terminus to the Fc domain of human Ig (Fc fusion)

Reference: publication doi:10.1101/2021.10.31.466654
